Assay: soluble on expression in E. coli; label from the status in PepcDB or PDB records

In the case of “MSLAATIREVAALAGVAPGTVSNVLTGKKLVAEPLRKAVLDAIAQLDYRPNHLASSLRFGRTKSIGIVVPDMTNPFFSGLVRELELKAAKSGFQILLMSSYEEAAEERERIRALVSRQVDGLIISPSRDSIETSPHSAISGIPTVLVDRAFAVEGFDTVSADNEQATLMGARHLIELGHKRITFLATAPGLANMEERVSGYRKAMQDAGVSDANVVYGGLSIESCRSAIEQELRRAGRPTAVFASAYVATLGAAKAIRALDLAFPQDVSLLGFDDSDWMTVLRPYVSTIEQPLDELGHACWELLQRRMKKMDVPPVHRRIACTLRARESTREGHHHHHH”, the “soluble on expression in E. coli” value is reported as “soluble”.
In the case of “MMFWDSEVAKRLLAQGALRPLDVQFARFIGKQAVLAGHNAAESELLSVLSAALSAELGRGHICLPLCDAQGNRCDLAALIGLYGEASLQHSERWLAVDWQALLQASPLVGQQGEAVPLMFDGSRLYLHRYWHYEKQLAARLTELAAPQRLSPAELANLRERLNTLFARDYLGLWQALQQKPLSSVERIQLLNDRLDVVESDALDWPAIEAVVEKAQRAADLQALEQLIPLTHCLNWQKVAAAVALTRRFAVISGGPGTGKTTTVTKLLAALISQSMAQGKVPEIKLIAPTGKAAARLTESMGKAVSQLAIEPEIAAAIPSSSSTIHRLLGAIPGSAEFRHHTRNPLHLDLLVVDEASMVDLPLMVKLVEALPKHARLILLGDKDQLASVEAGAVLGDICTFLNQGYGHEQGAQLAELTGFATLRQTASKTVNPVADCLCMLQKSYRFDARSGIGQLAKAINSGSPARVEAVWQQSFSDIEHFALSGEHYQQLLQTLVQAYRPYLSLLNQPTEQFESTQQSMLTLAKSALDAFSRCRLLCALREGDFGVMGLNTRIERALNAHKLIKTQEEIWYHGRPIMVTRNDHGLGLYNGDIGLCMRDRDDDQGRLKVYFELPDGSIKAVLPSRVPQHETAYAMTIHKSQGSEFDLTLLILPPDYSPILTRELVYTGITRAKKQLKLYCDNKVLQRAIKVKTQRASGLVARLEQ”, the “soluble on expression in E. coli” value is reported as “not soluble”.
For “MANHARVVRGGEMASAQWLQALAAGVEPEVRMNPVLVKPFGERGAQVVVWGKVDPFLSGLPWKERRPHLEAPVREALEGLLAEYDLLVLEGAGSPVERNLWPDLPNLRVAEWADAKALLVADVDQGGALGALYGTWALLGEHRKRLIGFAFNKFRGDLELLKPAYALLRDWTGLPVLGTLPLLPLALPEEDGFRYRQPAGNGPKVALLRYPHAANLDEFWPLSELAQVVYAHSPEEAEGAWLLILPGSRLPARDLPWLRAFLPLIQRHLEAGKPVLAVCGGAEMLSEALLDEEGVEERGHFPGLGLLPYRVRMAREKTVERRRVRLRGLSGYWGRLEGLEVEGYEIHHGQGLPLFHQEGSLLATWLHGLLENPGVQKALFGREARGLEEGLEALADALERHLDLRALHRALGLTGRAFPASPTEAKAPVGCPDPPPPPGLVLLLGGAKSGKSRFAQRLAGPFATLVATAEARDEEMAEKIRRHQEERPPTWETLEAPLDLVGALKRARHPTVVVDCLTLWVANLMERGLDPLLEARRFLSAVEESGKRVIAVSNEVGMGIVPQNPLARRYRDLLGQVNALLAEAAQEAYLLVAGRALPLGGGKVPAQEAKRPGSHGGEPGPGRSRDPGP”, the “soluble on expression in E. coli” value was “soluble”.
In the case of “AIAAIAEKAKGKEWTSTEKSREEDQQASNQPNSIALPGTSAKRTKEKMSVKGSKVLCPKKKAEHTDNPRPQKKIPIPPLPSKLPPVNLIHRDILRAWCQQLKLSSKGQKLDAYKRLCAFAYPNQKDFPSTAKEAKIRKSLQKKLKVEKGETSLQSSETHPPEVALPPVGEPPALENSTALLEGVNTVVVTTSAPEALLASWARISARARTPEAVESPQEASGVRWCVVHGKSLPADTDGWVHLQFHAGQAWVPEKQEGRVSALFLLPASNFPPPHLEDNMLCPKCVHRNKVLIKSLQWE”, the “soluble on expression in E. coli” value is reported as “soluble”.
For “MATWQGTNGGLLAGIGGVNSNAPSVNDIGNTLQLIRQNNDIERSGANNVGLTALQGLSGIAGVFQQEKQAQRQKEFQQAYANAYASGDRGALRQLATQYPDQIESVRKGMGFIDEEQRNSIGTLAAGARLASSSPEAMQSWLQNNAGELARVGVNPHDVAQMYQQNPRQFGEFVDHLGMNSLGPEKYFDLQDKMQGRQVTMRGQDLDSQTAARNQAITMRGQDIQANLGQQRINLDAETNRINNENKRLDRMLSAETNDLKRQEIQSRIAANNQQLQQKQQALNDGYKDGINTLTTSMFTLNDIVSSPSLKSITGLRGVIPNVPGSQAADTQARLDTFKSQAYLTAVQAMRGMGALSDAEGKKLDQAVGSLQNSQSEESFRRNAGVILNTLNQKRNEAVGKYVQQNGIKRVEAPQASIDYLKQHPELSIDFINRYGYLPSLGQ”, the “soluble on expression in E. coli” value was “soluble”.
In the case of “MTVRALLTPEIAPRMGIVLFRPGSELMPLFMQGRVLLEPEPERYSSFASGAVPAASQPLADDPAVRAVFRNEAVIRRAGGVECLESWLLREKGCQWPHSDWHSENMTTMRHAPGAIRLCWHCDNQLRDQFTERLESMATDNCARWVLSVVRRDLGFDDSHVVTMPELCWWLVRNDLADALPESAARKALRLPKPVVPSVTRESDLVPSVPATSIIQDKAKKVLALKVDPESPESFMLRPKRRRWVNEKYTRWVKTQPCACCGKPADDPHHLIGHGQGGMGTKAHDLFVLPLCRKHHDELHADTVTFEEKYGSQLELIFRFIDRALAIGVLA”, the “soluble on expression in E. coli” value is reported as “not soluble”.
For “MESKAENRKKILQMLKNFSDYEKRRQNKDVLKQLTASSKWKSAKKIALYMSMPIEFNLTELFDQSDDKEILIPKCLPERQMIFAKYDKENLVRSKFGLLEPKSEIAVEPDFILVPGLIWNDEGYRIGFGGGYYDRYLANFEGSTASVLYDFQKMDFEAESHDIAVQELFIGRKNNEFLEHHHHHH”, the “soluble on expression in E. coli” value was “soluble”.
With “MGSDKIHHHHHHMSFELHPRYLEVHLHGRLCGFLCEAGGNTRFVPTDEYRGDNERYTLSLSITLPTEIGREATSAVFDNAFHPAIYNTGGELPPYFAGLLPEGELRKRLESTRTNPEDKDDFGVLASAGNDLPGAIVVKPADVRALPGYVRTYGVTGGADNLEIAVVEGATEGAASVSGVQNKLALSTMRKGERYTLPTKGKVSDIIAKLPAKNDDSQVFNEYVSMHLAAAAGVNIAPIQVLPMSSIDVPDLADLMGKGLHYLAVERFDRAADGGLLHAEDGCQMLGRMPNRKYAKREEYIRLLAALYRLSPKGFENVRQFFLRQAVNTLIGNSDAHLKNFSVIYRDRKLPELSPAYDIVCVAALPNFTSYGQNVAIDEIQRKETMDLYEDIADKAGIPRRIATAAVKEAVSMAHAHWPGLLEKMGASQALRDVIAERLENLPLAKVGRPTRKGA” the “soluble on expression in E. coli” value was “not soluble”.
For “MAGDPMNIQDAQPSTLREMIKQGKLTGHTSGMAKGYVQANVVILPSKCAYDFLLFCFRNPKTCPLLDVSEKGNKSFTKYGVTADISTEVAAYRIYQYGELIETRANVDDLYTDDMVSFLIGCSFTFEHALLEAGIPIRHLEENHNVPMYVTNIPANPSGQFKGNITVSMRPMTMTQAIKATEITTRFKNVHGTPIHIGNPTEIGITDLALPDFGEPVTINENEVPVFWGCGVTPQSVALDAKPDLMITHAPGHMFITDIPDSQLSDLEHHHHHH”, the “soluble on expression in E. coli” value was “soluble”.
In the case of “MAHHHHHHMKEYTGNRSVPTTIQNKKKSITEEINKSLHTQDSKNNQNNYEICLSDVSVSTISNSSGIDSDLYEEVIKKIKKEKKRKRKESKRDIYKEKVKYDKKESNSNDENKNDRGNEKDRKNNSDIENNSDSEYINDKEKDRKKRKHIDIDKKKRNKESHHHVNKKKDKNISTRKKRKYTSSLSSESYERRKDKKKKKEKYRNSESSYKSMVDENIPKDPFNPLLLAYEKKEKKKYRKNDEHNDLNDRWKHDRYENTSDDEDINIEKAYENSKPYFDPHEFPKILWKSKAGGVCVPQISDDKK”, the “soluble on expression in E. coli” value is reported as “not soluble”.
For “GLIIGPEEDYDPGYFNNESDIIFQDLEKLKSHPAYLVVFLRYILSQADPGPLLFYLCSEVYQQTNPKDSRSLGKDIWNIFLEKNAPLRVKIPEMLQAEIDLRLRNNEDPRNVLCEAQEAVMLEIQEQINDYRSKRTLGLGSLYGENDLLGLDGDPLRERQMAEKQLAALGDILSKYEEDRSAPMDFAVNTFMSHAGIRLRESR”, the “soluble on expression in E. coli” value was “soluble”.
With “MHHHHHHSSGVDLGTENLYFQSMAQADIALIGLAVMGQNLILNMNDHGFVVCAFNRTVSKVDDFLANEAKGTKVVGAQSLKEMVSKLKKPRRIILLVKAGQAVDDFIEKLVPLLDTGDIIIDGGNSEYRDTTRRCRDLKAKGILFVGSGVSGGEEGARYGPSLMPGGNKEAWPHIKTIFQGIAAKVGTGEPCCDWVGDEGAGHFVKMVHNGIEYGDMQLICEAYHLMKDVLGMAQDEMAQAFEDWNKTELDSFLIEITANILKFQDTDGKHLLPKIRDSAGQKGTGKWTAISALEYGVPVTLIGEAVFARCLSSLKDERIQASKKLKGPQKFQFDGDKKSFLEDIRKALYASKIISYAQGFMLLRQAATEFGWTLNYGGIALMWRGGCIIRSVFLGKIKDAFDRNPELQNLLLDDFFKSAVENCQDSWRRAVSTGVQAGIPMPCFTTALSFYDGYRHEMLPASLIQAQRDYFGAHTYELLAKPGQFIHTNWTGHGGTVSSSSYNA” the “soluble on expression in E. coli” value was “soluble”.
In the case of “MSLSAMQWERLLDPTRLNDKHGGSREEIGRSPFHKDHDRIVFAGSFRRLGRKTQVHPLTDNDHIHTRLTHSLEVGCVGRSLGMIVGEQLRERLPAWITPADLGVIVQAACLGHDIGNPPFGHAGEYAIRDWFKRAEADGSGLLADLAPAEREDLLTYEGNAQGFRIVTQIEYNQFNGGMRLTAATLGTMLKYPWTVERASRAGKFGCYQSERELLGEVAERLGLLPRGETAWCRHPLAYLVEAADDICYALLDLEDGLEMGILRFDEVAEILIQIAGGAPEGYDGMRARGVSQRRRIATLRGAAMERAVNDVAAVFVAHESALLGGTLSEDLLELCHPDLGWGVGTAKRIARERIFQNERKAKLEIGAYTTLGILLEAFIGAAHELHYSGQSSFKHQRVLALIGENTPKSSWSLYASYRRMLDFIGGMTDHYAVDLAQEMGGRLEGHHHHHH”, the “soluble on expression in E. coli” value is reported as “soluble”.
For “FTLVCITAASRHHWGTEVDIFDPDLLPRGQSLQLEPWEYEKGGYFFELSEFLAENLPHFDFALPFMNMQSNKKVGREPWHISYLPL”, the “soluble on expression in E. coli” value was “not soluble”.
For “MCTSKPKFIPLPEQQSLCSLPNSGCCHVDVKVGRSKWEKRVAVLVQVEGEPDYKIYIYTKPLIGQIYPLNELKKREVKCEKDKVFLVNLASEKGEKITFKATGNNGSIWVAALMSGTFTSPIHETHGHTGGTGTDGTTSNIESDLKEKPDTNVYTGSREGYVPPPAKEGSGSGGKKKDMNNVAVKPDEKKKDSGRKLKKTVSKTITKLSVSESKKKTEKKIAATQKTQEFPIPKTVDEAHTNSEPDGDPLKLKKTITDGNELSLKGATAPTPQKAKLTTPTSTTPASSLTPSNALTPGNEDKKKMTTDSEEIELHEKKK”, the “soluble on expression in E. coli” value was “soluble”.
With “MGSDKIHHHHHHMKTQQERQPGKIATKFNQEKTREGKKLKIAVVAQDSQYPSTIQRFLAEADKSYPLISLIGGVQQVAAVAEQEQPDLLMLEGQYFSSMELETLNRVTSRFPDVGVVMLCPAQPPELLIEVMRAGVREVLPTPLTRHGVIDAVERFQQRIALSRMPMHECKVLAFIPCKGGSGATFLATNIAYALAAQENKRVALFDFNLQFGDASLFVQDGPPATSIADVARQIQRLDGSFLNSSMIQVLPNFGMLAAPESPEKAAEIRSEHINPLFQVAMKHYDFVILDVGRELDAISIQALDRADLIFPVLQQTLPSIRDARRMSAAFAALNYPDEKIRLIVNRYKKNADITLDDIESTLNLKIFKVVPNDYAVVTGSVNQGIPATKLAPRSPVAKSLQEIAHELCRGAGQGNLLRKLFAF” the “soluble on expression in E. coli” value was “not soluble”.
For “MGSDKIHHHHHHMLPGIVVKPLKTFADERGFFTEIMRRDWDVFEDEILQANMSVTYPGIVRAWHKHERGQVDYFVCIGGAIKICAYDDETQELAEIVSTGKNLQVVRVPGHYWHGFKAIGVEPAVLVYFVSRLYDYENPDEVRRPWNDSTIVPAKINGREDDPRCGKPWDWFYPPHK”, the “soluble on expression in E. coli” value was “not soluble”.
